This passage reports normalised SPOT signal, Boehringer light units (BLU); mean over the file's lines of this peptide results from PMC314469, “Protein Interaction Networks by Proteome Peptide Scanning” (PLoS Biology, 2004).

What all share (assay): SPOT array
Assay [1] deals with T1, Myo5 SH3 (MYO5_YEAST), Q04439.
T1 chain: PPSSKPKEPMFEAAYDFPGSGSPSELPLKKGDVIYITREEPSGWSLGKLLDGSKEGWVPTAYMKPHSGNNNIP

Assay [2] addresses T2, Yhr016c SH3 (YSC84_YEAST), P32793.
T2 chain: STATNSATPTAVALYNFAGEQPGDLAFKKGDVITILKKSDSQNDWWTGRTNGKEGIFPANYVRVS

Assay [3] deals with T3, Rvs167 SH3 (RV167_YEAST), P39743.
T3 chain: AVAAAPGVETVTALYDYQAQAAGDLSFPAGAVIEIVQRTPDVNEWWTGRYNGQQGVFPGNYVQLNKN

Assay [4] has as its target T4, Boi1 SH3 (BOI1_YEAST), P38041.
T4 chain: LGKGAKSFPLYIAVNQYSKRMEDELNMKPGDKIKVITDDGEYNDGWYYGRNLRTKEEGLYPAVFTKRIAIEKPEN

The target in assay [5] is T5, Boi2 SH3 (BOI2_YEAST), P39969.
T5 chain: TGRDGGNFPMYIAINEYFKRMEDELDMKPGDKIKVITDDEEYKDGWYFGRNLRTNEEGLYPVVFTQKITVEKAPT

The target of assay [6] is Sho1 SH3 (SHO1_YEAST), P40073.
In assay [7] the target is T6, Yfr024 SH3 (LSB3_YEAST), P43603.
T6 chain: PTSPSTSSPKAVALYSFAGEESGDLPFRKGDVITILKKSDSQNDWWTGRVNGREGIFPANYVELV

Chain of Sho1 SH3 (SHO1_YEAST), P40073 (P40073 295-366): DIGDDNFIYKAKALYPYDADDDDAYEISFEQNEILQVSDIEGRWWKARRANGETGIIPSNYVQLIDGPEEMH

On to LNGLKSSPADPHLS [YLR072W 61-74], for which the normalised SPOT signal, Boehringer light units (BLU); mean over the file's lines of this peptide in assay [1] worked out at 153; in assay [2], 23.9; in assay [3] it was 60.3; in assay [4], 63.9; in assay [5], 39.1; in assay [6], 20.5. In assay [7], the normalised SPOT signal, Boehringer light units (BLU); mean over the file's lines of this peptide is 2.4.

Take LNRKKVTPQLPKVT [YFL013C 529-542]: the normalised SPOT signal, Boehringer light units (BLU); mean over the file's lines of this peptide was found to be 500 in assay [1]; 22.7 in assay [2]; 75.9 in assay [3]; 384 in assay [4]; 27.9 in assay [5]; 263 in assay [6]. This molecule also yielded a normalised SPOT signal, Boehringer light units (BLU); mean over the file's lines of this peptide in assay [7] of 142.

Regarding LPEPRFYPLSPKNN [YCL051W 94-107], the normalised SPOT signal, Boehringer light units (BLU); mean over the file's lines of this peptide in assay [1] came to 289; in assay [2], 30.9; in assay [3], 49.4; in assay [4], 95.3; in assay [5] it was 47; in assay [6], 33. In assay [7], the normalised SPOT signal, Boehringer light units (BLU); mean over the file's lines of this peptide worked out at 202.

In the case of LPFPRKNPKLPENT [YHR099W 3263-3276], the normalised SPOT signal, Boehringer light units (BLU); mean over the file's lines of this peptide in assay [1] worked out at 147; in assay [2], 44.2; in assay [3], 40.2; in assay [4], 289; in assay [5], 38.3; in assay [6] it was 149. The normalised SPOT signal, Boehringer light units (BLU); mean over the file's lines of this peptide in assay [7] was determined as 322.

As for LPKLKSNPSVPHLH [YBR218C 505-518], the normalised SPOT signal, Boehringer light units (BLU); mean over the file's lines of this peptide was 193 in assay [1]; 5.2 in assay [2]; 52.3 in assay [3]; 843 in assay [4]; 20.5 in assay [5]; 114 in assay [6]. For the same molecule, the normalised SPOT signal, Boehringer light units (BLU); mean over the file's lines of this peptide in assay [7] came to 71.1.

Turning to LNRQKNYPDAPAIF [YKL216W 87-100], the normalised SPOT signal, Boehringer light units (BLU); mean over the file's lines of this peptide in assay [1] amounted to 86.4; in assay [2], 19.7; in assay [3] it was 63.3; in assay [4], 71.2; in assay [5], 7.9; in assay [6] it was 56.9. The same molecule came in with a normalised SPOT signal, Boehringer light units (BLU); mean over the file's lines of this peptide in assay [7] of 38.6.

In the case of LPEKKNSPTTPSVF [YOL152W 75-88], the normalised SPOT signal, Boehringer light units (BLU); mean over the file's lines of this peptide in assay [1] turned out to be 102; in assay [2] it was 22.9; in assay [3], 67.3; in assay [4] it was 88.9; in assay [5], 0; in assay [6] it was 54.9. Besides, the normalised SPOT signal, Boehringer light units (BLU); mean over the file's lines of this peptide in assay [7] stood at 11.4.

Take LPLPKLRPPRPTFA [YKL097C 62-75]: the normalised SPOT signal, Boehringer light units (BLU); mean over the file's lines of this peptide is 77900 in assay [1]; 4270 in assay [2]; 87.3 in assay [3]; 3930 in assay [4]; 3.7 in assay [5]; 76.3 in assay [6]. In assay [7], this molecule had a normalised SPOT signal, Boehringer light units (BLU); mean over the file's lines of this peptide of 16600.

In the case of LNTMKKRPAPPSLP [YOR231W 77-90], the normalised SPOT signal, Boehringer light units (BLU); mean over the file's lines of this peptide in assay [1] was 22300; in assay [2], 202; in assay [3], 271; in assay [4], 97.3; in assay [5], 72.5; in assay [6], 374. In assay [7], this molecule had a normalised SPOT signal, Boehringer light units (BLU); mean over the file's lines of this peptide of 1440.

Turning to LNQSKGQPFQPSPT [YBL101C 22-35], the normalised SPOT signal, Boehringer light units (BLU); mean over the file's lines of this peptide was found to be 255 in assay [1]; 26.4 in assay [2]; 111 in assay [3]; 139 in assay [4]; 0 in assay [5]; 24.8 in assay [6]. Moreover, the normalised SPOT signal, Boehringer light units (BLU); mean over the file's lines of this peptide in assay [7] came out at 16.

Regarding LNPNRRAPRRPLST [YJL128C 180-193], the normalised SPOT signal, Boehringer light units (BLU); mean over the file's lines of this peptide in assay [1] was 8000; in assay [2], 173; in assay [3], 1240; in assay [4], 4910; in assay [5] it was 506; in assay [6] it was 585. The molecule also showed a normalised SPOT signal, Boehringer light units (BLU); mean over the file's lines of this peptide in assay [7] of 3720.

As to LNKTKLLPQSPILN [YJR005W 603-616], the normalised SPOT signal, Boehringer light units (BLU); mean over the file's lines of this peptide in assay [1] is 118; in assay [2], 14.5; in assay [3], 35.5; in assay [4], 93.4; in assay [5], 8.8; in assay [6], 1920. Moreover, in assay [7], the normalised SPOT signal, Boehringer light units (BLU); mean over the file's lines of this peptide came out at 71.9.

As for LNFPKNIPTIPFYV [YDR402C 27-40], the normalised SPOT signal, Boehringer light units (BLU); mean over the file's lines of this peptide is 256 in assay [1]; 22.8 in assay [2]; 53 in assay [3]; 92.6 in assay [4]; -0 in assay [5]; 131 in assay [6]. Also, the normalised SPOT signal, Boehringer light units (BLU); mean over the file's lines of this peptide in assay [7] came to 26.9.

Take LNLSKDAPVPPAPE [YOL006C 316-329]: the normalised SPOT signal, Boehringer light units (BLU); mean over the file's lines of this peptide in assay [1] was 161; in assay [2], 81; in assay [3], 128; in assay [4] it was 103; in assay [5], 19.2; in assay [6] it was 54.1. Further, the normalised SPOT signal, Boehringer light units (BLU); mean over the file's lines of this peptide in assay [7] was found to be 0.
